Experimental data from patent US7901902B2, “Methods and compositions for identifying a cellular immune response against prostate cancer” (BioSante Pharmaceuticals, Inc., priority 2006, dated 2011).

Target: HLA-A2 (Homo sapiens, UniProt P04439, D140Y/D185E/D98H/E176V/E277Q/G131W/G231S/I119V/I121R/I166T/I218V/L300P/L318F/N151K/N90K/P208A/P217A/Q86G/Q94H/R138H/R169H/T345S)
Experiment: HLA-A2 peptide binding assay on T2 cells (fluorescence index, flow cytometry)
Conditions: summary of Tables 2 and 3

| Sequence | upregulation of HLA-A2 expression (in words) |
| --- | --- |
| RLIALLEVL (Filamin-B peptides) [Filamin B peptide # 5, 9-mer peptide selected from the filamin-B polypeptide] | greatest upregulation |
| GQGDVMVFV (Filamin-B peptides) [Filamin B peptide # 6, 9-mer peptide selected from the filamin-B polypeptide] | moderate upregulation |
| LILGLVWTL (Filamin-B peptides) [Filamin B peptide # 1, 9-mer peptide selected from the filamin-B polypeptide] | greatest upregulation |
| SLQESGLKV (Filamin-B peptides) [Filamin B peptide # 4, 9-mer peptide selected from the filamin-B polypeptide] | moderate upregulation |
| KLILGLVWT (Filamin-B peptides) [Filamin B peptide # 7, 9-mer peptide selected from the filamin-B polypeptide] | upregulated HLA-A2 weakly |

The next lines start with the values.

| upregulation of HLA-A2 expression (in words) | Sequence |
| --- | --- |
| moderate upregulation | GLVEPVNMV (Filamin-B peptides) [Filamin B peptide # 2, 9-mer peptide selected from the filamin-B polypeptide] |
| greatest upregulation | GLAPLEVRV (Filamin-B peptides) [Filamin B peptide # 3, 9-mer peptide selected from the filamin-B polypeptide] |
